# Source: patent US20230241072A1, “ANTHRACYCLINE DERIVATIVES” (ALMAC DISCOVERY LIMITED, priority 2019, published 2023)
# Columns and labels:
# [1] = Human plasma stability of protein-PNU conjugates (LC-MS of released payload); assay type: in vitro ADME; details: 37° C., up to 168 h, 4 or 2 uM PDC, LLOQ 0.1 or 0.156 uM
# Protocol: Different conjugates were incubated at 37° C. for 168 h in human plasma at a final concentration of 4 μM or 2 μM of protein. Samples were analysed by LC-MS as a function of time up to and including 168 h and the amount of released PNU159682 and EDA-PNU159682 derivative was quantified by reference to calibration standards.
# PA-1 = assay: In vitro cell viability assay (Cell Titre Glo), VNAR drug conjugates: PA-1; assay type: cell-based, human; details: for IC50: Table 5, 96 h
# Protocol: (§1) In Vitro Cell Viability Assays for Cancer Cells Treated with Anti ROR1 VNAR Drug Conjugates
# (§2) Cells were seeded into white, clear bottom 96 well plates (Costar) and incubated at 37° C., 5% CO2 for 24 hours. On the following day, dilution series were set up for each test agent at ×10 working stocks. The dose response ×10 stock was: 10000, 5000, 1000, 500, 100, 50, 10, 5, 1, 0.5 nM etc. 10 μL of the ×10 stock solutions were added to the cell plates (90 μl per well) using a multichannel pipette. […] 100d of vehicle control (PBS) was added to the control wells (columns 11 and 12). Plates were incubated at 37′C, 5% CO2 for 72-96 hours. Promega Cell litre Glo reagent was used as per the manufacturer's instructions to assess cell viability. Briefly, assay plates were removed from incubator and allowed to equilibrate to room temperature before adding […] of room temperature Cell litre Glo reagent to each 100 μl assay well. Plates were placed on a plate shaker for 2 minutes at 600 rpm. Plates were allowed to sit for a further 10 minutes at room temperature prior to measuring luminescence read-out using a Clariostar plate-reader (BMG). Data was analysed by calculating the average for untreated (vehicle only) control wells and determining the % of control for each treated well. % of control data was then plotted against Log [Treatment] concentration and the IC50 value derived using non-linear regression fitting in GraphPad Prism software.
# (§3) The following cell lines were used: • Kasumi-2—human B cell leukaemia precursor; • PA-1—human ovarian cancer cell line; • PA-1 ROR1 ko—human ovarian cancer cell line with ROR1 knock-out; • 697—human B cell leukaemia precursor, and • MHH-ES1—human Ewing's sarcoma cell line.
# Cathepsin B = Cathepsin B (Homo sapiens, UniProt P07858); assay: Cathepsin B treatment of protein-PNU conjugates, payload release; assay type: in vitro ADME; details: after treatment with Cat B; protein 10 uM (2VhFc conjugate 5 uM)
# Excerpt: Cathepsin B treatment of VNAR-hFc-vc-PAB-EDA-PNU conjugates and the corresponding conjugates of the multimeric proteins liberated free EDA-PNU159682 derivative in a quantitative fashion. Whereas, VNAR-hFc-va-EDA-PNU conjugates and the corresponding conjugates of the multimeric proteins were completely stable to Cathepsin B treatment.
# Only the vc-PAB-EDA-PNU releases payload on treatment with CatB as expected for the conditions used in this in vitro assay. The release is quantitative—as the conjugates have a drug to antibody ratio of 2, then twice the concentration of payload released versus the concentration of conjugate is expected after CatB treatment. This expectation matches the data shown in Table 11 for vc-PAB-EDA-PNU conjugates.
# PA-1 ROR1 ko = assay: In vitro cell viability assay (Cell Titre Glo), VNAR drug conjugates: PA-1 ROR1 ko; assay type: cell-based, human; details: for IC50: Table 5, 96 h, PA-1 ROR1 ko
# Protocol: as §1, §2, §3
# Kasumi-2 = assay: In vitro cell viability assay (Cell Titre Glo), VNAR drug conjugates: Kasumi-2; assay type: cell-based, human; details: for IC50: Table 5, 96 h
# Protocol: as §1, §2, §3
# 697 = assay: In vitro cell viability assay (Cell Titre Glo), VNAR drug conjugates: 697; assay type: cell-based, human
# Protocol: as §1, §2, §3
# [2] = Mouse plasma stability of protein-PNU conjugates (LC-MS of released payload); assay type: in vitro ADME; details: 37° C., 4 μM protein
# Protocol: Different P3A1-hFc-PNU conjugates were incubated at 37° C. in mouse plasma at a final concentration of 4 μM of protein. Samples were analysed by LC-MS as a function of time and the amount of released PNU159682 and EDA-PNU159682 derivative was quantified by reference to calibration standards.
# MHH-ES1 = assay: In vitro cell viability assay (Cell Titre Glo), VNAR drug conjugates: MHH-ES1; assay type: cell-based, human; details: for IC50: Table 5, 96 h
# Protocol: as §1, §2, §3
# ROR1 = ROR1 (Homo sapiens, UniProt Q01973); assay: SPR / BLI binding kinetics to immobilised ROR1-hFc; design: ROR1-hFc or ROR2-hFc fusion proteins (extracelluar domains) were immobilised; details: for hROR1 Ka (M^−1s^−1) / hROR1 Ka: association rate; for Kd: read-out: hROR1 KD
# Protocol: (§4) VNARs were genetically fused to engineered hIgG1 Fc domains via standard [G4S]3 that contained a cysteine substitution in the hIgG1 Fc sequence, S239C (EU numbering). The VNAR Fc fusion proteins were expressed as secreted protein in CHO K1 cells and purified from the media using MabSelect™ SuRe™ (Evitria, Switzerland). Purified proteins were analysed by SEC (AdvanceBio, Agilent), SDS PAGE and mass spectrometry to confirm sequence and protein integrity. Binding kinetics were determined using a Pioneer Surface Plasmon Resonance (SPR) instrument (SensiQ/Pall ForteBio), or the Biolayer Interferometry (BLI) Octet K2 system (ForteBio). ROR1-hFc or ROR2-hFc fusion proteins (extracelluar domains) were immobilised in sodium acetate pH5 buffer to COOH2 chips or AR2G sensors using amine coupling. VNARs and VNAR-Fc molecules were tested at various concentrations and the Ka (M^−1 s^−1), Kd (s^−1) and KD (nM) values were determined using QDat software (SensiQ/Pall ForteBio) or Octet Data Analysis High Throughput software (ForteBio) for Biolayer Interferometry. ROR1 2A2 mAb (Biolegend) and ROR2 mAb (R&D Systems) were included as controls for positive/negative binding to ROR1 and ROR2. 2V is a control VNAR sequence, derived from a naïve VNAR library, so is representative of this protein class but has no known target.
# (§5) Binding kinetics for binding of the multimeric VNAR proteins to ROR1-hFc or ROR2-hFc fusion proteins (extracelluar domains) were determined using a Pioneer Surface Plasmon Resonance (SPR) instrument (SensiQ/Pall ForteBio) or the Biolayer Interferometry (BLI) Octet K2 system (ForteBio) as previously described.
# human ROR2 = target: T1, human ROR2 (Homo sapiens, UniProt Q01974); assay: SPR / BLI binding to immobilised ROR2-hFc
# T1 construct: ROR1-hFc or ROR2-hFc fusion proteins (extracelluar domains) were immobilised
# Protocol: as §4, §5
# [3] = ratio to corresponding non-binding 2V-hFc conjugate
# [4] = Table 3, VNAR-Fc fusions, dissociation rate
# [5] = Table 3b, VNAR-Fc fusions, dissociation rate
molecule,measurement,setting,value
"P3A1hFc-PEG4-vc-PAB-EDA-PNU (conjugate, left off: a dimerising Fc or GST) TRVDQTPRTATKETGESLTINCVLTDTSYGLYSTSWFRKNPGTTDWERMSIGGRYVESVNKGAKSFSLRIKDLTVADSATYYCKAREARHPWLRQWYDGAGTVLTVNGGGGSGGGGSGGGGS",Observed EDA payload release,[1],EDA-PNU not detected above LLOQ
same,IC50,PA-1,0.1 nM
same,ROR1 targeting/2V non-targeting window PA-1,PA-1; [3],73
same,Average Conc EDA Released,Cathepsin B,20.1 µM
same,IC50,PA-1 ROR1 ko,11 nM
same,ROR1 targeting/2V non-targeting window PA-1 31-J-06,"PA-1 ROR1 ko; ratio to corresponding non-binding 2V-hFc conjugate, PA-1 31-J-06 (ROR1 −/−; matches PA-1 ROR1 ko of Table 5)",1.3
same,IC50,Kasumi-2,3.2 nM
same,ROR1 targeting/2V non-targeting window Kasumi-2,Kasumi-2; [3],18
same,IC50,"697; Table 5, 96 h",52 nM
same,ROR1 targeting/2V non-targeting window 697,697; [3],1.2
same,"Concentration (nM) of free PNU payload detected by LC-MS, 4 h",[2]; 4 h,21 nM
same,"Concentration (nM) of free PNU payload detected by LC-MS, 24 h",[2]; 24 h,84 nM
same,"Concentration (nM) of free PNU payload detected by LC-MS, 48 h",[2]; 48 h,108 nM
same,"Concentration (nM) of free PNU payload detected by LC-MS, 72 h",[2]; 72 h,107 nM
same,"Concentration (nM) of free PNU payload detected by LC-MS, 96 h",[2]; 96 h,101 nM
same,"Concentration (nM) of free PNU payload detected by LC-MS, 120 h",[2]; 120 h,114 nM
same,IC50,MHH-ES1,24 nM
same,ROR1 targeting/2V non-targeting window MHH-ES1,MHH-ES1; [3],1.1
"2V hFc: non-binding control VNAR 2V fused to hIgG1 Fc (protein, left off: a dimerising Fc or GST) TRVDQTPRTATKETGESLTINCVLTDTSYGLYSTSWFRKNPGTTDWERMSIGGRYVESVNKGAKSFSLRIKDLTVADSATYYCKAQSLAISTRSYWYDGAGTVLTVNGGGGSGGGGSGGGGS",hROR1 KD (nM),"ROR1; Table 3, VNAR-Fc fusions",No binding
same,hROR1 Ka (M^−1s^−1),"ROR1; Table 3, VNAR-Fc fusions",No binding
same,hROR1 Kd (s^−1),ROR1; [4],No binding
same,hROR2,"human ROR2; Table 3, VNAR-Fc fusions",No binding
"P3A1 hFc: ROR1-specific VNAR P3A1 fused to engineered hIgG1 Fc domain (S239C) (protein, left off: a dimerising Fc or GST) TRVDQTPRTATKETGESLTINCVLTDTSYGLYSTSWFRKNPGTTDWERMSIGGRYVESVNKGAKSFSLRIKDLTVADSATYYCKAREARHPWLRQWYDGAGTVLTVNGGGGSGGGGSGGGGS",hROR1 Ka,"ROR1; Table 3, VNAR-Fc fusions",1.07e+07 M⁻¹ s⁻¹
same,hROR1 Kd,ROR1; [4],0.000564 s⁻¹
same,Kd,"ROR1; Table 3, VNAR-Fc fusions",0.084 nM
same,hROR2,"human ROR2; Table 3, VNAR-Fc fusions",No binding
"P3A1 hFc(442): VNAR P3A1 fused to engineered hIgG1 Fc with cysteine substitution S442C (EU numbering) (protein, left off: a dimerising Fc or GST) TRVDQTPRTATKETGESLTINCVLTDTSYGLYSTSWFRKNPGTTDWERMSIGGRYVESVNKGAKSFSLRIKDLTVADSATYYCKAREARHPWLRQWYDGAGTVLTVNGGGGSGGGGSGGGGS",hROR1 Ka (M^−1s^−1),"ROR1; Table 3b, VNAR-Fc fusions",2.70+05 M^−1s^−1
same,hROR1 Kd,ROR1; [5],0.0002 s⁻¹
same,hROR2,"human ROR2; Table 3b, VNAR-Fc fusions",No binding
"P3A1hFc(442)-PEG4-va-EDA-PNU (conjugate, left off: a dimerising Fc or GST) TRVDQTPRTATKETGESLTINCVLTDTSYGLYSTSWFRKNPGTTDWERMSIGGRYVESVNKGAKSFSLRIKDLTVADSATYYCKAREARHPWLRQWYDGAGTVLTVNGGGGSGGGGSGGGGS",Observed EDA payload release,[1],No EDA-PNU detected at any time points
same,IC50,PA-1,0.025 nM
same,IC50,PA-1 ROR1 ko,18.3 nM
same,IC50,Kasumi-2,9.1 nM
same,IC50,MHH-ES1,37.5 nM
"hFc - P3A1: hIgG1 Fc - VNAR P3A1 fusion (protein, left off: a dimerising Fc or GST, hIgG1 Fc - VNAR P3A1 fusion) GGGGSGGGGSGGGGSTRVDQTPRTATKETGESLTINCVLTDTSYGLYSTSWFRKNPGTTDWERMSIGGRYVESVNKGAKSFSLRIKDLTVADSATYYCKAREARHPWLRQWYDGAGTVLTVN",hROR1 Ka,"ROR1; Table 3, VNAR-Fc fusions",2.38e+06 M⁻¹ s⁻¹
same,hROR1 Kd,ROR1; [4],0.000776 s⁻¹
same,Kd,"ROR1; Table 3, VNAR-Fc fusions",0.35 nM
same,hROR2,"human ROR2; Table 3, VNAR-Fc fusions",No binding
"B1V15 hFc: humanised VNAR B1V15 (SEQ ID NO: 59) - hFc fusion (protein, left off: a dimerising Fc or GST) ASVTQSPRSASKETGESLTITCRVTGANYGLAATYWYRKNPGSSNQERISISGRYSESVNKRTMSFSLRISSLTVEDSATYYCKAYPWGAGAPWLVQWYDGQGTKLEVKGGGGSGGGGSGGGGS",hROR1 Ka,"ROR1; Table 3b, VNAR-Fc fusions",179000 M⁻¹ s⁻¹
same,hROR1 Kd,ROR1; [5],0.00013 s⁻¹
same,hROR2,"human ROR2; Table 3b, VNAR-Fc fusions",No binding
